# ± gives the uncertainty stated by the source.
# B1: Cullin-9, residues 2234 to 2275; numbered along this chain, Q8IWT3 (parent)
# chain: KRCPSCQAPIEKNEGCLHMTCAKCNHGFCWRCLKSWKPNHKD
# Variants of: B1
# Assay: abundance fitness (aPCA) (normalised: wild type 0, dead -1); higher = more abundant; growth selection in yeast, the domain comes from the species named
# Conditions: Homo sapiens
row,Variant,abundance fitness
1,KRCPSCQAPIEKNEGCLHMTCAKCNHGFCWRCLKSWKPNHKP [D42P],-0.158 ± 0.19
2,KRCPSCQAPIEKNEGFLHMTCAKCNHGFCWRCLKSWKPNHKD [C16F],-0.149 ± 0.15
3,KRCPSCQAPIEKNEGKLHMTCAKCNHGFCWRCLKSWKPNHKD [C16K],0.324 ± 0.099
4,KRCPSCQAPIEKNEGDLHMTCAKCNHGFCWRCLKSWKPNHKD [C16D],0.544 ± 0.092
5,KRCPSCQGPIEKNEGCLHMTCAKCNHGFCWRCLKSWKPNHKD [A8G],0.023 ± 0.074
6,KRCPSCQAPIEKHEGCLHMTCAKCNHGFCWRCLKSWKPNHKD [N13H],-0.165 ± 0.14
7,KRCPSCQAPIEKEEGCLHMTCAKCNHGFCWRCLKSWKPNHKD [N13E],-0.002 ± 0.1
8,KRCMSCQAPIEKNEGCLHMTCAKCNHGFCWRCLKSWKPNHKD [P4M],-0.079 ± 0.11
9,KRCPSCQAPIEKNEGCLHSTCAKCNHGFCWRCLKSWKPNHKD [M19S],0.016 ± 0.097
10,KRCPSCQAPIEKNEGCLHVTCAKCNHGFCWRCLKSWKPNHKD [M19V],0.264 ± 0.076
11,KRCPSCQAPIEKNEGCLHETCAKCNHGFCWRCLKSWKPNHKD [M19E],-0.186 ± 0.1
12,KRCPSCQAPIEKNEGCLHPTCAKCNHGFCWRCLKSWKPNHKD [M19P],0.012 ± 0.1
13,KRCPSCQAPIEKNEGCLHDTCAKCNHGFCWRCLKSWKPNHKD [M19D],0.046 ± 0.13
14,KRCPSCQAPIELNEGCLHMTCAKCNHGFCWRCLKSWKPNHKD [K12L],-0.201 ± 0.081
15,KRCPSCQAPIEHNEGCLHMTCAKCNHGFCWRCLKSWKPNHKD [K12H],-0.151 ± 0.2
16,KRCPSCQAPIEYNEGCLHMTCAKCNHGFCWRCLKSWKPNHKD [K12Y],-0.152 ± 0.17
17,KRCPSCQAPIETNEGCLHMTCAKCNHGFCWRCLKSWKPNHKD [K12T],-0.046 ± 0.095
18,KRCPSCQAPIEKNNGCLHMTCAKCNHGFCWRCLKSWKPNHKD [E14N],-0.219 ± 0.24
19,KRCPSCQAPIEKNVGCLHMTCAKCNHGFCWRCLKSWKPNHKD [E14V],-0.397 ± 0.092
20,KRCPSCQAPIEKNQGCLHMTCAKCNHGFCWRCLKSWKPNHKD [E14Q],-0.132 ± 0.13

row,Variant,abundance fitness
1,KRCPSCQAPIEKNRGCLHMTCAKCNHGFCWRCLKSWKPNHKD [E14R],-0.369 ± 0.091
2,KRCPSCQAPIEKNEGCLMMTCAKCNHGFCWRCLKSWKPNHKD [H18M],0.154 ± 0.1
3,KRCPSCQAPIEKNEGCLHMTCAKCNHGFCLRCLKSWKPNHKD [W30L],-0.156 ± 0.083
4,KRCPSCQAPIEKNEGCLHMTCAKCNHGFCSRCLKSWKPNHKD [W30S],-0.101 ± 0.11
5,KRCPSCQAPIEKNEGCLHMTCAKCNHGFCWRCLKSWFPNHKD [K37F],-0.193 ± 0.16
6,KRCPSCQAPIEKNEGCLHMTCAKCNHGFCWRCLKSWCPNHKD [K37C],0.057 ± 0.11
7,KRCPSCQAPIEKNEGCLHMTCAKCNHGFCWRCLKLWKPNHKD [S35L],0.078 ± 0.09
8,KRCPSCQAPIEKNEGCLHMTCAKCNHGFCWRCLKDWKPNHKD [S35D],0.003 ± 0.2
9,KRCPSCQAPIEKNEGCLHMTCAKCNHGFCWRCLKTWKPNHKD [S35T],0.044 ± 0.17
10,KRCPSCQAPIEKNEGCLHMTCAKCNHGFCWRCLKWWKPNHKD [S35W],-0.23 ± 0.12
11,KRCPSCQAPIEKNEGCLHMTCIKCNHGFCWRCLKSWKPNHKD [A22I],-0.025 ± 0.14
12,KRMPSCQAPIEKNEGCLHMTCAKCNHGFCWRCLKSWKPNHKD [C3M],-0.144 ± 0.11
13,KRTPSCQAPIEKNEGCLHMTCAKCNHGFCWRCLKSWKPNHKD [C3T],-0.435 ± 0.15
14,KRNPSCQAPIEKNEGCLHMTCAKCNHGFCWRCLKSWKPNHKD [C3N],0.169 ± 0.24
15,KRCPSCQAPIEKNEGCLHMTMAKCNHGFCWRCLKSWKPNHKD [C21M],-0.962 ± 0.16
16,KRCPSCQAPIEKNEGCLHMTDAKCNHGFCWRCLKSWKPNHKD [C21D],-0.239 ± 0.13
17,KRCPSCQAPIEKNEGCLHMTFAKCNHGFCWRCLKSWKPNHKD [C21F],-0.917 ± 0.33
18,KRCPSCQAPIEKNEGCLHMTCAKCNHGFCWTCLKSWKPNHKD [R31T],0.03 ± 0.11
19,KRCPSCQAPIEKNEGCLHMTCAKCNHGFCWYCLKSWKPNHKD [R31Y],0.212 ± 0.17
20,KRCPSCQAPIEKNEWCLHMTCAKCNHGFCWRCLKSWKPNHKD [G15W],-0.176 ± 0.1

row,Variant,abundance fitness
1,KRCPSCQAPIEKNEGCLHMTCAKCNHAFCWRCLKSWKPNHKD [G27A],0.194 ± 0.077
2,KRCPSCQAPIEKNEGCLHMTCAKCNHEFCWRCLKSWKPNHKD [G27E],0.708 ± 0.091
3,KRCPSCQAPIEKNEGCLHMTCAKCNHHFCWRCLKSWKPNHKD [G27H],0.379 ± 0.14
4,KPCPSCQAPIEKNEGCLHMTCAKCNHGFCWRCLKSWKPNHKD [R2P],-0.209 ± 0.13
5,KCCPSCQAPIEKNEGCLHMTCAKCNHGFCWRCLKSWKPNHKD [R2C],0.07 ± 0.18
6,KWCPSCQAPIEKNEGCLHMTCAKCNHGFCWRCLKSWKPNHKD [R2W],-0.279 ± 0.11
7,KICPSCQAPIEKNEGCLHMTCAKCNHGFCWRCLKSWKPNHKD [R2I],1.09 ± 0.27
8,KRCPSCQACIEKNEGCLHMTCAKCNHGFCWRCLKSWKPNHKD [P9C],-0.074 ± 0.13
9,KRCPSCQARIEKNEGCLHMTCAKCNHGFCWRCLKSWKPNHKD [P9R],-0.048 ± 0.087
10,KRCPSCQANIEKNEGCLHMTCAKCNHGFCWRCLKSWKPNHKD [P9N],-0.026 ± 0.26
11,KRCPSCQAMIEKNEGCLHMTCAKCNHGFCWRCLKSWKPNHKD [P9M],0.056 ± 0.1
12,KRCPSCQALIEKNEGCLHMTCAKCNHGFCWRCLKSWKPNHKD [P9L],-0.39 ± 0.089
13,KRCPSCQAPTEKNEGCLHMTCAKCNHGFCWRCLKSWKPNHKD [I10T],-0.083 ± 0.1
14,KRCPSCQAPSEKNEGCLHMTCAKCNHGFCWRCLKSWKPNHKD [I10S],-0.233 ± 0.095
15,KRCPSCQAPGEKNEGCLHMTCAKCNHGFCWRCLKSWKPNHKD [I10G],-0.303 ± 0.081
16,KRCPSCQAPIEKNEGCLHMTCAMCNHGFCWRCLKSWKPNHKD [K23M],-0.323 ± 0.14
17,KRCPSCQAPIEKNEGCLHMTCANCNHGFCWRCLKSWKPNHKD [K23N],-0.184 ± 0.23
18,KRCPSCQAPIEKNEGCLHMTCAQCNHGFCWRCLKSWKPNHKD [K23Q],-0.454 ± 0.14
19,KRCPSCQAPIEKNEGCLHMTCAPCNHGFCWRCLKSWKPNHKD [K23P],-0.695 ± 0.12
20,KRCPSCQAPIEKNEGCLHMTCAVCNHGFCWRCLKSWKPNHKD [K23V],-0.293 ± 0.091
